Measured values reported in patent US20160264649A1.

How the values were obtained:
Assay in all cases: cell-based or functional assay
[1] = target: HIV-1 Env of isolate 92TH021 (subtype AE) (HIV-1)
[2] = target: HIV-1 Env of isolate 92UG031 (subtype A) (HIV-1)
[3] = target: HIV-1 Env of isolate 92UG037 (subtype A) (HIV-1)
[4] = target: HIV-1 Env of isolate 92UG114 (subtype D) (HIV-1)
[5] = target: HIV-1 Env of isolate 92WR009 (subtype A) (HIV-1)
[6] = target: HIV-1 Env of isolate 92WR020 (subtype A) (HIV-1)
[7] = target: HIV-1 Env of isolate 92WR021 (subtype A) (HIV-1)
[8] = target: HIV-1 Env of isolate 92WR024 (subtype A) (HIV-1)
[9] = target: HIV-1 Env of isolate 92WR026 (subtype A) (HIV-1)
[10] = target: HIV-1 Env of isolate 93UG077 (subtype A) (HIV-1)
[11] = target: HIV-1 Env of isolate 93WR029 (subtype A) (HIV-1)
[12] = target: HIV-1 Env of isolate 94 KE 105 (subtype AC) (HIV-1)
[13] = target: HIV-1 Env of isolate 94UG103 (subtype A) (HIV-1)
[14] = target: HIV-1 Env of isolate CMU02 (subtype AE) (HIV-1)
[15] = target: HIV-1 Env of isolate MGRM-AE-001 (subtype AE) (HIV-1)
[16] = target: HIV-1 Env of isolate MGRM-AE-002 (subtype AE) (HIV-1)
[17] = target: HIV-1 Env of isolate MGRM-AE-003 (subtype AE) (HIV-1)
[18] = target: HIV-1 Env of isolate MGRM-AE-004 (subtype AE) (HIV-1)
[19] = target: HIV-1 Env of isolate MGRM-AE-005 (subtype AE) (HIV-1)
[20] = target: HIV-1 Env of isolate MGRM-AE-006 (subtype AE) (HIV-1)
[21] = target: HIV-1 Env of isolate MGRM-AE-007 (subtype AE) (HIV-1)
[22] = target: HIV-1 Env of isolate MGRM-AE-008 (subtype AE) (HIV-1)
[23] = target: HIV-1 Env of isolate MGRM-D-001 (subtype D) (HIV-1)
[24] = target: HIV-1 Env of isolate MGRM-D-002 (subtype D) (HIV-1)
[25] = target: HIV-1 Env of isolate MGRM-D-003 (subtype D) (HIV-1)
[26] = target: HIV-1 Env of isolate MGRM-D-004 (subtype D) (HIV-1)
[27] = target: HIV-1 Env of isolate MGRM-D-005 (subtype D) (HIV-1)
[28] = target: HIV-1 Env of isolate MGRM-D-008 (subtype D) (HIV-1)
[29] = target: HIV-1 Env of isolate MGRM-D-011 (subtype D) (HIV-1)
[30] = target: HIV-1 Env of isolate MGRM-D-012 (subtype D) (HIV-1)
[31] = target: HIV-1 Env of isolate MGRM-D-013 (subtype D) (HIV-1)
[32] = target: HIV-1 Env of isolate MGRM-D-014 (subtype D) (HIV-1)
[33] = target: HIV-1 Env of isolate MGRM-D-016 (subtype D) (HIV-1)
[34] = target: HIV-1 Env of isolate MGRM-D-018 (subtype D) (HIV-1)
[35] = target: HIV-1 Env of isolate MGRM-D-019 (subtype D) (HIV-1)
[36] = target: HIV-1 Env of isolate MGRM-D-020 (subtype D) (HIV-1)
[37] = target: HIV-1 Env of isolate MGRM-D-021 (subtype D) (HIV-1)
[38] = target: HIV-1 Env of isolate MGRM-D-022 (subtype D) (HIV-1)
[39] = target: HIV-1 Env of isolate MGRM-D-024 (subtype D) (HIV-1)
[40] = target: HIV-1 Env of isolate MGRM-D-026 (subtype D) (HIV-1)
[41] = target: HIV-1 Env of isolate MGRM-D-028 (subtype D) (HIV-1)
[42] = target: HIV-1 Env of isolate MGRM-D-029 (subtype D) (HIV-1)
[43] = target: HIV-1 Env of isolate MGRM-F1-004 (subtype F) (HIV-1)
[44] = target: HIV-1 Env of isolate MGRM-F1-006 (subtype F) (HIV-1)
[45] = target: HIV-1 Env of isolate MGRM-F1-008 (subtype F) (HIV-1)
[46] = target: HIV-1 Env of isolate MGRM-F1-010 (subtype F) (HIV-1)
[47] = target: HIV-1 Env of isolate MGRM-F1-012 (subtype F) (HIV-1)
[48] = target: HIV-1 Env of isolate MGRM-F1-013 (subtype F) (HIV-1)
[49] = target: HIV-1 Env of isolate MGRM-F1-014 (subtype F) (HIV-1)
[50] = target: HIV-1 Env of isolate MGRM-F1-015 (subtype F) (HIV-1)
[51] = target: HIV-1 Env of isolate MGRM-F1-016 (subtype F) (HIV-1)
[52] = target: HIV-1 Env of isolate MGRM-F1-017 (subtype F) (HIV-1)
[53] = target: HIV-1 Env of isolate MGRM-F1-018 (subtype F) (HIV-1)
[54] = target: HIV-1 Env of isolate MGRM-F1-020 (subtype F) (HIV-1)
[55] = target: HIV-1 Env of isolate MGRM-F1-021 (subtype F) (HIV-1)
[56] = target: HIV-1 Env of isolate MGRM-F1-022 (subtype F) (HIV-1)
[57] = target: HIV-1 Env of isolate MGRM-F1-023 (subtype F) (HIV-1)
[58] = target: HIV-1 Env of isolate VLGCA1 (subtype A) (HIV-1)

Sequence of PGT-145 (4995_P16) (antibody) (VH): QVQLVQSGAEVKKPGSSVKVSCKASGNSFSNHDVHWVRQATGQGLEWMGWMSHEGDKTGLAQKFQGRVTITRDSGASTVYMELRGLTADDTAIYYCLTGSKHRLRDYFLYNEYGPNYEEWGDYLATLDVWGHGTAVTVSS
Sequence of PGT-145 (4995_P16) (antibody) (VL): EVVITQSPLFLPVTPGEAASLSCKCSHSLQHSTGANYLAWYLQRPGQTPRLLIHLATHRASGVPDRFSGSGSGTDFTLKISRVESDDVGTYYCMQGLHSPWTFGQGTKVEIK

PGT-145 (4995_P16) (antibody)
IC50 (pseudovirus neutralization) [1]: 0.013 µg/mL
IC50 (pseudovirus neutralization) [2]: 3.22 µg/mL
IC50 (pseudovirus neutralization) [3]: 3.15 µg/mL
IC50 (pseudovirus neutralization) [4]: 20.1 µg/mL
IC50 (pseudovirus neutralization) [5]: 0.026 µg/mL
IC50 (pseudovirus neutralization) [6]: 0.997 µg/mL
IC50 (pseudovirus neutralization) [7]: 1.62 µg/mL
IC50 (pseudovirus neutralization) [8]: 0.069 µg/mL
IC50 (pseudovirus neutralization) [9]: 1.45 µg/mL
IC50 (pseudovirus neutralization) [10]: > 50 µg/mL
IC50 (pseudovirus neutralization) [11]: > 50 µg/mL
IC50 (pseudovirus neutralization) [12]: 1.32 µg/mL
IC50 (pseudovirus neutralization) [13]: 0.331 µg/mL
IC50 (pseudovirus neutralization) [14]: 1.43 µg/mL
IC50 (pseudovirus neutralization) [15]: 20.9 µg/mL
IC50 (pseudovirus neutralization) [16]: 1.87 µg/mL
IC50 (pseudovirus neutralization) [17]: 0.552 µg/mL
IC50 (pseudovirus neutralization) [18]: 0.006 µg/mL
IC50 (pseudovirus neutralization) [19]: 0.967 µg/mL
IC50 (pseudovirus neutralization) [20]: > 50 µg/mL
IC50 (pseudovirus neutralization) [21]: 0.181 µg/mL
IC50 (pseudovirus neutralization) [22]: 1.46 µg/mL
IC50 (pseudovirus neutralization) [23]: 0.56 µg/mL
IC50 (pseudovirus neutralization) [24]: > 50 µg/mL
IC50 (pseudovirus neutralization) [25]: 0.006 µg/mL
IC50 (pseudovirus neutralization) [26]: 10.9 µg/mL
IC50 (pseudovirus neutralization) [27]: 10.4 µg/mL
IC50 (pseudovirus neutralization) [28]: 0.025 µg/mL
IC50 (pseudovirus neutralization) [29]: 14.7 µg/mL
IC50 (pseudovirus neutralization) [30]: > 50 µg/mL
IC50 (pseudovirus neutralization) [31]: 3.48 µg/mL
IC50 (pseudovirus neutralization) [32]: 2.51 µg/mL
IC50 (pseudovirus neutralization) [33]: > 50 µg/mL
IC50 (pseudovirus neutralization) [34]: 0.065 µg/mL
IC50 (pseudovirus neutralization) [35]: 0.111 µg/mL
IC50 (pseudovirus neutralization) [36]: 10 µg/mL
IC50 (pseudovirus neutralization) [37]: > 50 µg/mL
IC50 (pseudovirus neutralization) [38]: 34.3 µg/mL
IC50 (pseudovirus neutralization) [39]: 0.224 µg/mL
IC50 (pseudovirus neutralization) [40]: 0.41 µg/mL
IC50 (pseudovirus neutralization) [41]: 0.721 µg/mL
IC50 (pseudovirus neutralization) [42]: 0.03 µg/mL
IC50 (pseudovirus neutralization) [43]: 0.361 µg/mL
IC50 (pseudovirus neutralization) [44]: 13.6 µg/mL
IC50 (pseudovirus neutralization) [45]: 0.228 µg/mL
IC50 (pseudovirus neutralization) [46]: 3.32 µg/mL
IC50 (pseudovirus neutralization) [47]: 0.113 µg/mL
IC50 (pseudovirus neutralization) [48]: 0.402 µg/mL
IC50 (pseudovirus neutralization) [49]: 0.009 µg/mL
IC50 (pseudovirus neutralization) [50]: 1.76 µg/mL
IC50 (pseudovirus neutralization) [51]: 17.5 µg/mL
IC50 (pseudovirus neutralization) [52]: 0.286 µg/mL
IC50 (pseudovirus neutralization) [53]: 1.02 µg/mL
IC50 (pseudovirus neutralization) [54]: 0.816 µg/mL
IC50 (pseudovirus neutralization) [55]: 8.04 µg/mL
IC50 (pseudovirus neutralization) [56]: 0.009 µg/mL
IC50 (pseudovirus neutralization) [57]: 5.88 µg/mL
IC50 (pseudovirus neutralization) [58]: 8.01 µg/mL
